± gives the standard deviation of the averaged measurements.

The subject of the series is Saccharomyces cerevisiae. Briefly: protein stability index of tFT-peptide fusion (C-terminal peptide) (PSI (0-1 scale)); higher = more stable (slower turnover). As to conditions: temperature: 30 C. The procedure:
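MPS profiling in S. cerevisiae of the yeast C-terminome library: the last 12 aa of each annotated ORF are fused to the C-terminus of a sfGFP-mCherry timer, after a GGGS linker. Cells are FACS-sorted into 8 mCherry/sfGFP bins and deep-sequenced. PSI runs from 0 (unstable) to 1 (stable); wild type and das1Δ backgrounds, two technical replicates each.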

Where [1] appears, read: genetic background: das1 deletion.

Take RTDPDRYSRLSV [ILT1 C-terminal 12 aa]: the protein stability index under setting [1] is 0.703 ± 0.027 and the protein stability index (genetic background: wild type) turned out to be 0.7277 ± 0.0055.
Consider “SCFSYSVGSKFT [YPR170W-A C-terminal 12 aa]”, for which the protein stability index by setting is: under setting [1], 0.7068 ± 0.0063; (genetic background: wild type) 0.703 ± 0.014.
Turning to SDHCWDGCWWCR [AQY2 C-terminal 12 aa], the protein stability index runs as follows: under setting [1], 0.7424 ± 0.0017; (genetic background: wild type) 0.765 ± 0.041.
“SEEKRRLAPADI [YOL019W-A C-terminal 12 aa]”: the protein stability index is 0.68 ± 0.02 under setting [1] and 0.691 ± 0.024 (genetic background: wild type).
The corresponding values for SELKGFVDEVDL [TFC1 C-terminal 12 aa] are 0.7183 ± 0.0033 and 0.721 ± 0.037.
For the sequence SESLSDSDLEIL [RAD24 C-terminal 12 aa], the protein stability index reads like this: under setting [1], 0.7105 ± 0.0068; (genetic background: wild type) 0.666 ± 0.0085.
“SFCYVSACGRTQ [YFL021C-A C-terminal 12 aa]”: the protein stability index is, setting by setting: under setting [1], 0.677 ± 0.0097; (genetic background: wild type) 0.709 ± 0.018.
For “SFFLRNFFPSLF [YDL159W-A C-terminal 12 aa]” the same measures were 0.756 ± 0.026 and 0.246 ± 0.022.
Regarding SFPIASSTTQTS [NST1 C-terminal 12 aa], the protein stability index under setting [1] was 0.696 ± 0.021 and the protein stability index (genetic background: wild type) came to 0.689 ± 0.0087.
As to SFYDNSLQTWIV [RRT2 C-terminal 12 aa], the protein stability index reads like this: under setting [1], 0.7484 ± 0.0042; (genetic background: wild type) 0.752 ± 0.029.
The corresponding values for SGEAAEEAEDEE [RPS9B C-terminal 12 aa] are 0.652 ± 0.023 and 0.664 ± 0.039.
Regarding SGIKEFFDNYKS [ARO9 C-terminal 12 aa], the protein stability index under setting [1] was 0.712 ± 0.027 and the protein stability index (genetic background: wild type) was 0.716 ± 0.025.
In the case of SGSGNSSKSNCC [SEC4 C-terminal 12 aa], the protein stability index is, setting by setting: under setting [1], 0.691 ± 0.025; (genetic background: wild type) 0.674 ± 0.018.
Turning to SHDMDFNNAGDF [HMS1 C-terminal 12 aa], the protein stability index by setting is: under setting [1], 0.707 ± 0.03; (genetic background: wild type) 0.7067 ± 0.0045.
The corresponding values for SHPTEQTEVSSQ [MHR1 C-terminal 12 aa] are 0.697 ± 0.0079 and 0.68 ± 0.02.
The corresponding values for SICPAIRRKEDY [RDT1 C-terminal 12 aa] are 0.699 ± 0.025 and 0.659 ± 0.025.
For SIPGITGRAQIS [ORM1 C-terminal 12 aa], the protein stability index is, setting by setting: under setting [1], 0.6983 ± 0.0014; (genetic background: wild type) 0.6656 ± 0.0065.
On to SIYDGTEEKIVY [DAL4 C-terminal 12 aa], for which the protein stability index by setting is: under setting [1], 0.689 ± 0.018; (genetic background: wild type) 0.705 ± 0.01.
On to SKLGINSGLCTN [ESL1 C-terminal 12 aa], for which the protein stability index under setting [1] was 0.683 ± 0.01 and the protein stability index (genetic background: wild type) came out at 0.688 ± 0.03.
As to SLCMEAGLVNEN [YCF1 C-terminal 12 aa], the protein stability index worked out at 0.6959 ± 0.0021 under setting [1] and 0.663 ± 0.037 (genetic background: wild type).
The corresponding values for SLDITEDWEVIF [ROT2 C-terminal 12 aa] are 0.725 ± 0.023 and 0.7587 ± 0.0031.
In turn, SLEKELISRGYR [CDC73 C-terminal 12 aa] yielded a protein stability index under setting [1] of 0.724 ± 0.0099 and a protein stability index (genetic background: wild type) of 0.685 ± 0.02.
SLKNYHNNTAQA [DBP6 C-terminal 12 aa]: the protein stability index was 0.688 ± 0.031 under setting [1] and 0.68 ± 0.0075 (genetic background: wild type).
SLNRPAERGGNR [YNL143C C-terminal 12 aa]: the protein stability index is 0.69578 ± 0.00021 under setting [1] and 0.688 ± 0.041 (genetic background: wild type).
Take SLPRQAGGRKKK [GLC7 C-terminal 12 aa]: the protein stability index runs as follows: under setting [1], 0.715 ± 0.033; (genetic background: wild type) 0.668 ± 0.052.
For SLQVILEFVSQH [SXM1 C-terminal 12 aa], the protein stability index by setting is: under setting [1], 0.654 ± 0.029; (genetic background: wild type) 0.6248 ± 0.0024.
The corresponding values for SLYPRFSGRCKP [DED81 C-terminal 12 aa] are 0.703 ± 0.011 and 0.6745 ± 0.0059.
With SMVSCLLTLYVL [GTT3 C-terminal 12 aa], the protein stability index was 0.4741 ± 0.0017 under setting [1] and 0.4796 ± 0.0038 (genetic background: wild type).
SNENARNNNPYL [FLC2 C-terminal 12 aa] displayed a protein stability index under setting [1] of 0.6906 ± 0.0056 and a protein stability index (genetic background: wild type) of 0.705 ± 0.043.
Consider SNFSRTLGLEFI [YGL041C C-terminal 12 aa], for which the protein stability index by setting is: under setting [1], 0.711 ± 0.0098; (genetic background: wild type) 0.716 ± 0.077.
With SNSSICFPLTIF [YKL136W C-terminal 12 aa], the protein stability index runs as follows: under setting [1], 0.6337 ± 0.0033; (genetic background: wild type) 0.2798 ± 0.0007.
As for SNSSKNRMNNYR [SPT6 C-terminal 12 aa], the protein stability index reads like this: under setting [1], 0.702 ± 0.017; (genetic background: wild type) 0.721 ± 0.034.
As to SPISVDFSSYLS [NBP1 C-terminal 12 aa], the protein stability index was found to be 0.734 ± 0.015 under setting [1] and 0.72 ± 0.058 (genetic background: wild type).
SRDYEETEYSVI [SPP381 C-terminal 12 aa] registered a protein stability index under setting [1] of 0.709 ± 0.025 and a protein stability index (genetic background: wild type) of 0.687 ± 0.062.
SRRRPFIGPETV [YMR057C C-terminal 12 aa]: the protein stability index is, setting by setting: under setting [1], 0.709 ± 0.037; (genetic background: wild type) 0.703 ± 0.0072.
With SRVDEVVTKYSH [AAH1 C-terminal 12 aa], the protein stability index came out at 0.7 ± 0.029 under setting [1] and 0.667 ± 0.028 (genetic background: wild type).
For SSANIDINSIAK [SPO22 C-terminal 12 aa] the same measures were 0.7 ± 0.04 and 0.729 ± 0.11.
The corresponding values for SSASPEVDCRCG [YLR444C C-terminal 12 aa] are 0.705 ± 0.0094 and 0.7312 ± 0.0057.
With SSFSLSLPRLNQ [SPT7 C-terminal 12 aa], the protein stability index under setting [1] is 0.6893 ± 0.0022 and the protein stability index (genetic background: wild type) amounted to 0.675 ± 0.028.
In turn, SSIQDLLSKLAN [RTT103 C-terminal 12 aa] returned a protein stability index under setting [1] of 0.691 ± 0.02 and a protein stability index (genetic background: wild type) of 0.7927 ± 0.0052.
Regarding SSLPYDILPALL [YGL199C C-terminal 12 aa], the protein stability index is, setting by setting: under setting [1], 0.703 ± 0.004; (genetic background: wild type) 0.6882 ± 0.0011.
On to SSSSTSSSATKN [TPS1 C-terminal 12 aa], for which the protein stability index came to 0.703 ± 0.017 under setting [1] and 0.685 ± 0.047 (genetic background: wild type).
For STFSKPFSTISK [VHR2 C-terminal 12 aa] the same measures were 0.6906 ± 0.0026 and 0.682 ± 0.059.
With STHGPGIVIDFA [MRPL1 C-terminal 12 aa], the protein stability index is, setting by setting: under setting [1], 0.724 ± 0.011; (genetic background: wild type) 0.761 ± 0.089.
For the sequence STLAGEWRLIIA [YBR284W C-terminal 12 aa], the protein stability index was determined as 0.498 ± 0.0089 under setting [1] and 0.518 ± 0.019 (genetic background: wild type).
In the case of SVSDPVKSEDSS [NCB2 C-terminal 12 aa], the protein stability index runs as follows: under setting [1], 0.68 ± 0.034; (genetic background: wild type) 0.689 ± 0.033.
Take SVYEHEHEKTFI [FUR4 C-terminal 12 aa]: the protein stability index is, setting by setting: under setting [1], 0.7127 ± 0.0018; (genetic background: wild type) 0.706 ± 0.0091.
The corresponding values for SWSGDNEAHRWT [NPT1 C-terminal 12 aa] are 0.716 ± 0.023 and 0.686 ± 0.016.
Turning to TAEEQEQSACQC [YPT6 C-terminal 12 aa], the protein stability index under setting [1] came out at 0.6863 ± 0.0043 and the protein stability index (genetic background: wild type) worked out at 0.687 ± 0.021.
For TAESDDDEEDDE [TIF5 C-terminal 12 aa] the same measures were 0.688 ± 0.026 and 0.709 ± 0.052.

Values taken from the supplement of paper PMC10724198.
